Where two headings read alike, the source gives them in different places. Numbered stars: 1 amine (or outer) side, 2 acyl side, 3 side chain; on linkers, the order of the positions; unused ones are H or OH. Bridge positions count the residues as written; N and C are the ends. Square brackets hold non-standard residues; d marks the D form. Ends that are not written are not given here. Peptide text beside a SMILES is read from it. I, II: the chains in the order shown. * marks the point of attachment. X1 = CC(C)CCC[C@@H](C)[C@H]1CC[C@H]2[C@@H]3CC=C4C[C@@H](OCCN(CCNC(=O)CCOCCOCCOCCOCCNC(=O)CCCN5C(=O)CC([*:1])C5=O)CCNC(=O)CCOCCOCCOCCOCCNC(=O)CCCN5C(=O)CC([*:2])C5=O)CC[C@]4(C)[C@H]3CC[C@]12C; X2 = O=C(CCN1C(=O)CC([*:1])C1=O)NCCOCCOCCOCCOCCOCCOCCOCCOCCOCCOCCOCCNC(=O)CCN1C(=O)CC([*:2])C1=O; Cbz = O=C(OCc1ccccc1)*
Experiments:
[1] = system: vesicular stomatitis virus (VSV); details: 16 h
[2] = target: viral glycoproteins (H and F); Nectin-4 (Measles virus, UniProt Q786F3); assay: beta-galactosidase complementation-based fusion assay, Nectin-4 target cells; details: for IC90: read-out: Nectin4 IC90
[3] = target: viral glycoproteins (H and F); CD150; assay: beta-galactosidase complementation-based fusion assay, CD150 target cells; details: for IC90: read-out: CD150 IC90
[4] = target: measles virus (MeV) fusion protein F, wild type, expressed on cells (measles virus) (UniProt Q786F3); assay: cell-based or functional assay
[5] = target: measles virus (MeV) fusion protein F, wild type, expressed on cells (measles virus) (UniProt Q786F3); assay: cell-based or functional assay; remark: listed apart in the source

| Compound | IC90, beta-galactosidase complementation-based fusion assay, Nectin-4 target cells [4] | IC50, beta-galactosidase complementation-based fusion assay, Nectin-4 target cells [5] | IC90, beta-galactosidase complementation-based fusion assay, Nectin-4 target cells [5] | also measured |
| --- | --- | --- | --- | --- |
| CC[C@H](C)[C@H](NC(=O)[C@H](CC(C)C)NC(=O)[C@H](CO)NC(=O)[C@H](Cc1c[nH]cn1)NC(=O)[C@@H](NC(=O)[C@H](CC(C)C)NC(=O)[C@H](CO)NC(=O)[C@@H](NC(=O)[C@H](Cc1ccc(O)cc1)NC(=O)[C@H](CC(N)=O)NC(=O)[C@H](CC(N)=O)NC(=O)[C@@H](NC(=O)[C@H](CCC(=O)O)NC(=O)[C@H](CCCNC(=N)N)NC(=O)[C@H](CC(=O)O)NC(=O)[C@H](Cc1c[nH]c2ccccc12)NC(=O)[C@H](CCC(=O)O)NC(=O)[C@H](CCSC)NC(=O)[C@H](Cc1c[nH]c2ccccc12)NC(=O)CNC(=O)[C@H](CO)NC(=O)CNC(=O)[C@H](CO)NC(=O)CNC(=O)CNC(=O)[C@H](Cc1ccccc1)NC(=O)[C@@H](Cc1ccccc1)NC(=O)OCc1ccccc1)[C@@H](C)CC)[C@@H](C)O)[C@@H](C)CC)C(=O)N[C@@H](CCC(=O)O)C(=O)N[C@@H](CCC(=O)O)C(=O)N[C@@H](CO)C(=O)N[C@@H](CCC(N)=O)C(=O)N[C@@H](CC(N)=O)C(=O)N[C@@H](CCC(N)=O)C(=O)N[C@@H](CCC(N)=O)C(=O)N[C@@H](CCC(=O)O)C(=O)N[C@@H](CCCCN)C(=O)N[C@@H](CC(N)=O)C(=O)N[C@@H](CCC(=O)O)C(=O)N[C@@H](CCC(N)=O)C(=O)N[C@@H](CCC(=O)O)C(=O)N[C@@H](CC(C)C)C(=O)N[C@@H](CC(C)C)C(=O)NCC(=O)N[C@@H](CO)C(=O)NCC(=O)N[C@@H](CO)C(=O)NCC(=O)N[C@@H](CSC1CC(=O)N(CCCC(=O)NCCOCCOCCOCCOCCC(=O)NCCN(CCNC(=O)CCOCCOCCOCCOCCNC(=O)CCCN2C(=O)CC(SC[C@H](NC(=O)CNC(=O)[C@H](CO)NC(=O)CNC(=O)[C@H](CO)NC(=O)CNC(=O)[C@H](CC(C)C)NC(=O)[C@H](CC(C)C)NC(=O)[C@H](CCC(=O)O)NC(=O)[C@H](CCC(N)=O)NC(=O)[C@H](CCC(=O)O)NC(=O)[C@H](CC(N)=O)NC(=O)[C@H](CCCCN)NC(=O)[C@H](CCC(=O)O)NC(=O)[C@H](CCC(N)=O)NC(=O)[C@H](CCC(N)=O)NC(=O)[C@H](CC(N)=O)NC(=O)[C@H](CCC(N)=O)NC(=O)[C@H](CO)NC(=O)[C@H](CCC(=O)O)NC(=O)[C@H](CCC(=O)O)NC(=O)[C@@H](NC(=O)[C@H](CC(C)C)NC(=O)[C@H](CO)NC(=O)[C@H](Cc3c[nH]cn3)NC(=O)[C@@H](NC(=O)[C@H](CC(C)C)NC(=O)[C@H](CO)NC(=O)[C@@H](NC(=O)[C@H](Cc3ccc(O)cc3)NC(=O)[C@H](CC(N)=O)NC(=O)[C@H](CC(N)=O)NC(=O)[C@@H](NC(=O)[C@H](CCC(=O)O)NC(=O)[C@H](CCCNC(=N)N)NC(=O)[C@H](CC(=O)O)NC(=O)[C@H](Cc3c[nH]c4ccccc34)NC(=O)[C@H](CCC(=O)O)NC(=O)[C@H](CCSC)NC(=O)[C@H](Cc3c[nH]c4ccccc34)NC(=O)CNC(=O)[C@H](CO)NC(=O)CNC(=O)[C@H](CO)NC(=O)CNC(=O)CNC(=O)[C@H](Cc3ccccc3)NC(=O)[C@@H](Cc3ccccc3)NC(=O)OCc3ccccc3)[C@@H](C)CC)[C@@H](C)O)[C@@H](C)CC)[C@@H](C)CC)C(=O)O)C2=O)CCO[C@H]2CC[C@@]3(C)C(=CC[C@H]4[C@@H]5CC[C@H]([C@H](C)CCCC(C)C)[C@@]5(C)CC[C@@H]43)C2)C1=O)C(=O)O (some centres unmarked) [FIP HIV] |  |  |  | IC50 [1]: > 5 µM |
| O=C(CCN1C(=O)CC(SC[C@H](NC(=O)CNC(=O)[C@H](CO)NC(=O)CNC(=O)[C@H](CO)NC(=O)CNC(=O)CNC(=O)[C@H](Cc2ccccc2)NC(=O)[C@@H](Cc2ccccc2)NC(=O)OCc2ccccc2)C(=O)O)C1=O)NCCOCCOCCOCCOCCOCCOCCOCCOCCOCCOCCOCCNC(=O)CCN1C(=O)CC(SC[C@H](NC(=O)CNC(=O)[C@H](CO)NC(=O)CNC(=O)[C@H](CO)NC(=O)CNC(=O)CNC(=O)[C@H](Cc2ccccc2)NC(=O)[C@@H](Cc2ccccc2)NC(=O)OCc2ccccc2)C(=O)O)C1=O (some centres unmarked) [[FIP]2-peg11] (I: Cbz-[dF]FGGSGSGC-OH / II: Cbz-[dF]FGGSGSGC-OH; linker I:9-II:9 via X2) |  |  |  | IC50 ([2]; Nectin4 IC50, Table 3 (extended version)): > 10 µM; IC90 [2]: > 10 µM; IC50 [3]: > 1 µM; IC90 [3]: > 1 µM |
| CC(C)CCC[C@@H](C)[C@H]1CC[C@H]2[C@@H]3CC=C4C[C@@H](OC(=O)CCOCCOCCOCCOCCOCCOCCOCCOCCOCCOCCOCCOCCOCCOCCOCCOCCOCCOCCOCCOCCOCCOCCOCCOCCNC(=O)CSC[C@H](NC(=O)CNC(=O)[C@H](Cc5ccccc5)NC(=O)[C@@H](Cc5ccccc5)NC(=O)OCc5ccccc5)C(=O)O)CC[C@]4(C)[C@H]3CC[C@]12C [peg24 chol [FIP] (no GSGSG)] |  |  |  | IC90 [2]: 0.568 ± 0.186 µM; IC90 [3]: 0.544 ± 0.0348 µM |
| FIP-HRC450-485 (peptide) | > 10 µM | 4.24 µM |  |  |
| FIP-HRC450-485-chol (peptide) | 0.446 µM | 0.214 µM | 0.614 µM | IC50, beta-galactosidase complementation-based fusion assay, Nectin-4 target cells [4]: 0.251 µM |
| FIP-HRC450-485-peg4-chol (peptide) |  | 0.214 µM | 0.614 µM |  |
| FIP-chol (peptide) | > 10 µM | 4 µM | 7.62 µM | IC50, beta-galactosidase complementation-based fusion assay, Nectin-4 target cells [4]: > 10 µM |
| FIP-peg4-chol (peptide) |  | 4 µM | 7.62 µM |  |
| HRC450-485 (peptide) |  | > 10 µM | > 10 µM |  |
| HRC450-485-chol (peptide) | > 1 µM |  | > 7 µM | IC50, beta-galactosidase complementation-based fusion assay, Nectin-4 target cells [4]: 0.103 µM |
| HRC450-485-peg4-chol (peptide) |  | 0.123 µM | 0.856 µM |  |
| I: Cbz-[dF]FGGSGSGVALDPIDISIVLNKIKSDLEESKEWIRRSNKILDSIGSGSGC / II: Cbz-[dF]FGGSGSGVALDPIDISIVLNKIKSDLEESKEWIRRSNKILDSIGSGSGC (linker I:50-II:50 via X1; N-terminus assumed) [FIP VI KI] |  |  |  | IC50 [1]: > 5 µM |
